From US10400230B2, “Protease variants and polynucleotides encoding same” (NOVOZYMES A/S, priority 2014, dated 2019)
Where “and” joins values, the source holds several entries; their conditions need not be identical. Equal entries are not always repeated.

B1: S27K, I150N, S171N, S173P, G174R, S175P, F180Y, Q198, ET297P: TY145 protease (SEQ ID NO 3) variant with these substitutions (protein, listed as Bacillus sp.)
chain: AVPSTQTPWGIKSIYNDQSITKTTGGKGIKVAVLDTGVYTSHLDLAGSAEQCKDFTQSNPLVDGSCTDRQGHGTHVAGTVLAHGGSNGQGVYGVAPQAKLWAYKVLGDNGSGYSDDIAAAIRHVADEASRTGSKVVINMSLGSSAKDSLNASAVDYAYGKGVLIVAAAGNNGPRPNTIGYPGGLVNAVAVAALENVQENGTYRVADFSSRGNPATAGDYIIQERDIEVSAPGASVESTWYTGGYNTISGTSMATPHVAGLAAKIWSANTSLSHSQLRTELQNRAKVYDIKGGIGAGPGDDYASGFGYPRVK
B2: S27K, I121V, S171N, S173P, G174R, S175P, F180Y, L184F, Q198E, T297P: TY145 protease (SEQ ID NO 3) variant with these substitutions (protein, listed as Bacillus sp.)
chain: AVPSTQTPWGIKSIYNDQSITKTTGGKGIKVAVLDTGVYTSHLDLAGSAEQCKDFTQSNPLVDGSCTDRQGHGTHVAGTVLAHGGSNGQGVYGVAPQAKLWAYKVLGDNGSGYSDDIAAAVRHVADEASRTGSKVVINMSLGSSAKDSLIASAVDYAYGKGVLIVAAAGNNGPRPNTIGYPGGFVNAVAVAALENVQENGTYRVADFSSRGNPATAGDYIIQERDIEVSAPGASVESTWYTGGYNTISGTSMATPHVAGLAAKIWSANTSLSHSQLRTELQNRAKVYDIKGGIGAGPGDDYASGFGYPRVK
B3: S27K, S171N, S173P, G174R, S175P, F180Y, L184F, Q198E, T297P: TY145 protease (SEQ ID NO 3) variant with these substitutions (protein, listed as Bacillus sp.)
chain: AVPSTQTPWGIKSIYNDQSITKTTGGKGIKVAVLDTGVYTSHLDLAGSAEQCKDFTQSNPLVDGSCTDRQGHGTHVAGTVLAHGGSNGQGVYGVAPQAKLWAYKVLGDNGSGYSDDIAAAIRHVADEASRTGSKVVINMSLGSSAKDSLIASAVDYAYGKGVLIVAAAGNNGPRPNTIGYPGGFVNAVAVAALENVQENGTYRVADFSSRGNPATAGDYIIQERDIEVSAPGASVESTWYTGGYNTISGTSMATPHVAGLAAKIWSANTSLSHSQLRTELQNRAKVYDIKGGIGAGPGDDYASGFGYPRVK
B4: S27K, K146P, S148R, A151R, S171N, S173P, G174R, S175P, F180Y, Q198E, N199K, T297P: TY145 protease (SEQ ID NO 3) variant with these substitutions (protein, listed as Bacillus sp.)
chain: AVPSTQTPWGIKSIYNDQSITKTTGGKGIKVAVLDTGVYTSHLDLAGSAEQCKDFTQSNPLVDGSCTDRQGHGTHVAGTVLAHGGSNGQGVYGVAPQAKLWAYKVLGDNGSGYSDDIAAAIRHVADEASRTGSKVVINMSLGSSAPDRLIRSAVDYAYGKGVLIVAAAGNNGPRPNTIGYPGGLVNAVAVAALENVQEKGTYRVADFSSRGNPATAGDYIIQERDIEVSAPGASVESTWYTGGYNTISGTSMATPHVAGLAAKIWSANTSLSHSQLRTELQNRAKVYDIKGGIGAGPGDDYASGFGYPRVK
B5: S173P, S175P, F180Y, L184F: TY145 protease (SEQ ID NO 3) variant with these substitutions (protein, listed as Bacillus sp.)
chain: AVPSTQTPWGIKSIYNDQSITKTTGGSGIKVAVLDTGVYTSHLDLAGSAEQCKDFTQSNPLVDGSCTDRQGHGTHVAGTVLAHGGSNGQGVYGVAPQAKLWAYKVLGDNGSGYSDDIAAAIRHVADEASRTGSKVVINMSLGSSAKDSLIASAVDYAYGKGVLIVAAAGNSGPGPNTIGYPGGFVNAVAVAALENVQQNGTYRVADFSSRGNPATAGDYIIQERDIEVSAPGASVESTWYTGGYNTISGTSMATPHVAGLAAKIWSANTSLSHSQLRTELQNRAKVYDIKGGIGAGTGDDYASGFGYPRVK
B6: S173P, S175P, I178Y, F180Y: TY145 protease (SEQ ID NO 3) variant with these substitutions (protein, listed as Bacillus sp.)
chain: AVPSTQTPWGIKSIYNDQSITKTTGGSGIKVAVLDTGVYTSHLDLAGSAEQCKDFTQSNPLVDGSCTDRQGHGTHVAGTVLAHGGSNGQGVYGVAPQAKLWAYKVLGDNGSGYSDDIAAAIRHVADEASRTGSKVVINMSLGSSAKDSLIASAVDYAYGKGVLIVAAAGNSGPGPNTYGYPGGLVNAVAVAALENVQQNGTYRVADFSSRGNPATAGDYIIQERDIEVSAPGASVESTWYTGGYNTISGTSMATPHVAGLAAKIWSANTSLSHSQLRTELQNRAKVYDIKGGIGAGTGDDYASGFGYPRVK
B7: S27K, Q70N, G107N, I121V, E127Q, S173P, S175P, F180Y, L184F, Q198E, T297P: TY145 protease (SEQ ID NO 3) variant with these substitutions (protein, listed as Bacillus sp.)
chain: AVPSTQTPWGIKSIYNDQSITKTTGGKGIKVAVLDTGVYTSHLDLAGSAEQCKDFTQSNPLVDGSCTDRNGHGTHVAGTVLAHGGSNGQGVYGVAPQAKLWAYKVLNDNGSGYSDDIAAAVRHVADQASRTGSKVVINMSLGSSAKDSLIASAVDYAYGKGVLIVAAAGNSGPGPNTIGYPGGFVNAVAVAALENVQENGTYRVADFSSRGNPATAGDYIIQERDIEVSAPGASVESTWYTGGYNTISGTSMATPHVAGLAAKIWSANTSLSHSQLRTELQNRAKVYDIKGGIGAGPGDDYASGFGYPRVK
B8: S173P, S175P, I178P, F180Y: TY145 protease (SEQ ID NO 3) variant with these substitutions (protein, listed as Bacillus sp.)
chain: AVPSTQTPWGIKSIYNDQSITKTTGGSGIKVAVLDTGVYTSHLDLAGSAEQCKDFTQSNPLVDGSCTDRQGHGTHVAGTVLAHGGSNGQGVYGVAPQAKLWAYKVLGDNGSGYSDDIAAAIRHVADEASRTGSKVVINMSLGSSAKDSLIASAVDYAYGKGVLIVAAAGNSGPGPNTPGYPGGLVNAVAVAALENVQQNGTYRVADFSSRGNPATAGDYIIQERDIEVSAPGASVESTWYTGGYNTISGTSMATPHVAGLAAKIWSANTSLSHSQLRTELQNRAKVYDIKGGIGAGTGDDYASGFGYPRVK
B9: S173P, S175P, N176Y, F180Y: TY145 protease (SEQ ID NO 3) variant with these substitutions (protein, listed as Bacillus sp.)
chain: AVPSTQTPWGIKSIYNDQSITKTTGGSGIKVAVLDTGVYTSHLDLAGSAEQCKDFTQSNPLVDGSCTDRQGHGTHVAGTVLAHGGSNGQGVYGVAPQAKLWAYKVLGDNGSGYSDDIAAAIRHVADEASRTGSKVVINMSLGSSAKDSLIASAVDYAYGKGVLIVAAAGNSGPGPYTIGYPGGLVNAVAVAALENVQQNGTYRVADFSSRGNPATAGDYIIQERDIEVSAPGASVESTWYTGGYNTISGTSMATPHVAGLAAKIWSANTSLSHSQLRTELQNRAKVYDIKGGIGAGTGDDYASGFGYPRVK
B10: S173P, S175P, I178F, F180Y: TY145 protease (SEQ ID NO 3) variant with these substitutions (protein, listed as Bacillus sp.)
chain: AVPSTQTPWGIKSIYNDQSITKTTGGSGIKVAVLDTGVYTSHLDLAGSAEQCKDFTQSNPLVDGSCTDRQGHGTHVAGTVLAHGGSNGQGVYGVAPQAKLWAYKVLGDNGSGYSDDIAAAIRHVADEASRTGSKVVINMSLGSSAKDSLIASAVDYAYGKGVLIVAAAGNSGPGPNTFGYPGGLVNAVAVAALENVQQNGTYRVADFSSRGNPATAGDYIIQERDIEVSAPGASVESTWYTGGYNTISGTSMATPHVAGLAAKIWSANTSLSHSQLRTELQNRAKVYDIKGGIGAGTGDDYASGFGYPRVK

Assay: Determination of binding constants of inhibitor (NNIC) in Model B detergent, Suc-AAPF-pNA read-out
Assay type: biochemical
Settings: Ki of variant with the mutation relative to variant without the mutation, <1.0 beneficial
Description: Purified protease variants are pre-diluted to approximately 0.2 mg/ml in dilution buffer. 40 μl diluted protease is then mixed with 40 μl inhibitor solution (Z-Gly-Ala-NHCH(CH2C6H4pOH)C(OH)(SO3Na)—H, wherein Z is benzyloxycarbonyl) or 40 μl 4-FPBA solution in the well of a 96 well microtiter plate (Nunc F 96-MTP). […] After 10 min mixing of protease and inhibitor at room temperature, 30 μl of the mixture is transferred to a microtiter plate (Nunc U96 PP 0.5 ml) with 270 μl Model B detergent in the wells resulting in inhibitor concentrations of 0-30 μM and 4-FPBA concentrations of 0-6000 μM. Protease, inhibitor and detergent is mixed for 1 hour using magnetic bars for 1 hour at room temperature to reach equilibrium. Then 20 μl is transferred to a microtiter plate (Nunc F 96-MTP). 100 μl substrate solution is added and after 5 sec mixing absorbance at 405 nm is measured every 20 sec for 5 min on a SpectraMax Plus reader. Slope from linear regression of initial increase in absorbance at 405 nm is used for calculation of apparent binding constants.
It is assumed that protease and inhibitor react according to the equation: E+I ? EI
Where E is the protease, I is the inhibitor and EI is the protease-inhibitor complex. […] The concentration of enzyme-inhibitor in the detergent solution is then given by:
where Etot is the total protease concentration ([Etot]=[E]+[EI]), Itot is the total inhibitor concentration ([Itot]=[I]+[EI]), and Ki is the equilibrium binding constant for the reaction. The measured slopes V are given by:
where V0 is the slope without inhibitor added. To calculate apparent binding constant Ki least square fitting of measured slopes at various inhibitor concentrations to this equation is performed with Ki and V0 as variables.
The Ki for the parent protease and for each variant was calculated as described above
Having the Ki for each variant, it is possible to calculate the effect of a single mutation, if data are available for at least two variants that differ only by that mutation. In this case, the relative Ki for the mutation is calculated:
[formula] A lower Ki is desirable, as a satisfactory inhibition can be obtained at a lower inhibitor concentration, so beneficial mutations have a relative Ki<1.0 The following table show such relative Kimutation. Each row show: • a mutation (column 1: “Mutation”) • a protease variant (relative to SEQ ID NO: 2) that comprise the mutation from column 1 (column 2: “Variant with the mutation”) • another protease variant (relative to SEQ ID NO: 2), that differs from the one in column 2 only by not having the mutation in column 1 (column 3: “Variant without the mutation”) • Relative Kimutation for the mutation in column 1, in the context of the variant in column 3, measured in Model B detergent (column 4: “inhibitor binding in Model B”) • Relative Kimutation for the mutation in column 1, in the context of the variant in column 3, measured in Tris buffer at pH 8 (column 5: “inhibitor binding in Tris buffer pH 8”)
Ki were calculated as shown in Example 3. The Improvement Factor (IF) or Relative

Q: For B1, which “Inhibitor-binding relative Kimutation, inhibitor binding in Model B” value (“Inhibitor-binding relative Kimutation” below) is on record?
A: 0.24

Q: With B2 as the molecule, how does the “Inhibitor-binding relative Kimutation” value read?
A: 0.30

Q: With B3 as the molecule, how does the “Inhibitor-binding relative Kimutation” value read?
A: 0.18

Q: Which “Inhibitor-binding relative Kimutation” value does the source give for B4 here?
A: 0.75

Q: With B5 as the molecule, how does the “Inhibitor-binding relative Kimutation” value read?
A: 0.31 and 0.27

Q: Which “Inhibitor-binding relative Kimutation” value does the source give for B6 here?
A: 0.53

Q: For B7, which “Inhibitor-binding relative Kimutation” value is on record?
A: 0.37

Q: With B8 as the molecule, how does the “Inhibitor-binding relative Kimutation” value read?
A: 0.51

Q: For B9, which “Inhibitor-binding relative Kimutation” value is on record?
A: 0.81

Q: For B10, which “Inhibitor-binding relative Kimutation” value is on record?
A: 0.50 and 0.49
